Test results: the nanobody polyreactivity screen of Harvey et al. (2022)

Experiment: yeast display, Sf9 membrane polyspecificity reagent, FACS + sequencing; frameworks hold sequencing errors
Summary of the method: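 Galactose-induced (36–48 hours) yeast carrying a synthetic nanobody display library were exposed to 10% biotinylated, detergent-solubilized Sf9 membrane reagent at 4 °C for 1 hour. FACS followed streptavidin microbead enrichment, using low and high (top ~1%) gates for expression (anti-HA) and reagent binding (streptavidin). Colony PCR, MiSeq 2 × 250 sequencing and CDR-length filtering followed. Labels for polyreactivity reflect the gate of origin.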

QVQLVESGGGLVQAGGSLRLTCAASGSTFAWYAMGWYRQAPGKERELVAAISRTGRTYYADSVKGRFTISRDNAKNTVYLQMNSLKPEDTAVYYCAARIERFYRDQRYDYWGQGTQVTVSS
polyreactivity (PSR sort gate): high polyreactivity

QVQLVESGGGLVQAGGSLRLSCAASGFIFTYYAMGWYRQAPGKERELVASITISGGSTYYADSVKGRFTISRDNAKNTVYLQMNSLKPEDTAVYYCNVVPWYYGYDYWGQGTQVTVSS
polyreactivity (PSR sort gate): high polyreactivity

QVQLVESGGGLVQAGGSLRLSCAASGSTFVDYAMGWYRPAPGKERELVAAINSDGGGTYYADSVKGRFTISRDNAKNTVYLQMNSLKPEDTAVYYCAAVGYTTYRRYDYWGQGTQVTVSS
polyreactivity (PSR sort gate): low polyreactivity

QVQLVESGGGLVQAGGSLRLSCAASGSIFTPYVMGWYRQAPGKERELVAAISKRGTRTYYADSVTGRFTISRDNAKNTVYFQMNSLKPEDTAVYYCNAAVDYGSEHDYWGQGTQVTVSS
polyreactivity (PSR sort gate): high polyreactivity

QVQLVESGGGLVQAGGSLRLSCAASGSIFHINAMGWYRQAPGKERELVADISQRGGSTYYADSVKGRVTISRDNAKNTVYLQMNSLKPEDTAVYYCAVVHVFYAVSYFSFYTYEYWGQGTQVTVSS
polyreactivity (PSR sort gate): low polyreactivity

QVQLVESGGGLVQAGGSLRLSCAASGSTIDTYAMGWYRQAPGKERELVAAIRYTGGRTYYADSVKGRCTISSDNAKNTVYLHMNSLKPEDTAVYYCNADGTKWVRETYDYWGQGTQVTVSS
polyreactivity (PSR sort gate): low polyreactivity

QVQLVESGGGLVQAGGSLRLSCAASGSIIIGNTMGWYRQAPGKERELVATIRRSGSRTYYADSVKGRFTISRDNAKNTVYLQMNSLKPEDTAVYYCAADRLRTSGYKTIYDYWGQGTQVTVSS
polyreactivity (PSR sort gate): low polyreactivity

QVQLVESGGGLVQAGGSLRLSCAASGRTFTFYTMGWYRQAPGKERELVARITGGGSTYYADSVKGRFTISRDNAKNTVYLQMNSLKPEDTAVYYCAAASGTKRLYRGTRGDYWGQGTQVTVSS
polyreactivity (PSR sort gate): low polyreactivity

QVQLVESGGGLVQAGGSLRLSCAASGNIFVAYAMGWYRQAPGKERELVAAITYNGGRTYYADSVKGRFTISRDNAKNTVYLQMNSLKPEDTAVYYCAARGYNPYGRKVGYWGQGTQVTVSS
polyreactivity (PSR sort gate): high polyreactivity

QVQLVESGGRLVQAGASLRLSCAASGFTLHWYAMGWYRQAPGKERELVASITNTGRTYYADSVKGRFTISRDNAKNTVYLQINILKPEDTAVYYCAAGTQYSHYYVADYCRDYWGQGTQVTVSS
polyreactivity (PSR sort gate): high polyreactivity

QVQLVESGGGLVQAGGSLRLSCAASGRTFGKYAMGWYRQAPGKERELVAAITGDGGSTYYADSVKGRFTISRDNAKNTVYLQMNSLKPEDTAVYYCNADPQRRNYDYWGQGTQVTVSS
polyreactivity (PSR sort gate): high polyreactivity

QVQLVESGGGLVQAGGSLRLSCAASGSTFVINAMGWYRQAPGKERELVADIDYRGGSTNYADSVKGRFTISRDNAKNTVYLLMNSLKPEDTAVYYCNKRYVIRRRGYDYWGQGTQVTVSS
polyreactivity (PSR sort gate): low polyreactivity

HVQLVESGGGLVQAGGSLRLSCAASGSIFDSYVMGWYRQAPGTERELVAAITYSGGSTYADSVKGRFTISRDNAKNTVYLQMNSLKPEDTAVYYCAAASYFYLYLLEDYWGQGTQVTVSS
polyreactivity (PSR sort gate): low polyreactivity

QVQLVESGGGLLQAGGSLRLSSAASGRTFPRYAMGWYRQAPGKERELVAAISVRAGITYYADSVKGRFTISRDNAKNTVYLQMNSLKPEDTAVYYCAKDHWTTSYDEGDYWGQGTQVTVSS
polyreactivity (PSR sort gate): low polyreactivity

QVQLVESGGGLVQAGGSLRFSCAASGSTFPSYAMGWYRQAPGKERELVAAITNGGSTTYADSVKGRFTISRDNAKITDYLQMNSLKPEDTAVYYCAARYYYYYYIRRDYWGQGTQVTVSS
polyreactivity (PSR sort gate): low polyreactivity

QVQLVESGGGLVQAGCSLRLICAASGLYAMGWYRQAPGKERELVADINSSGGSITNYADSVKGRFTISRDNAKNTVYLQMNSLKPEDTAVYDCAAPALGNYFYGYDYWGQGTQVTVSS
polyreactivity (PSR sort gate): low polyreactivity

QVQLVESGGGLVQAGGSLRLSCAASGSIFRAYAMGWYRQAPGKERELVAAITGNGARTYYADSVKGRFTISRDNAKNTVYLQMNSLKPEDTAVYYCAKRGNRQHRWWYDYWGQGTQVTVSS
polyreactivity (PSR sort gate): low polyreactivity

QVQLVESGVGLVQAGGSLLLSCAASGFISGSYAIGWYRQAPGKERELVADISRRGSSTYYADSVKGRFTISRDNAKNTVYLQMNSLKPEDTAVYVCNAVPYGNGAMDYWGQGTQVTVSS
polyreactivity (PSR sort gate): high polyreactivity

QVQLVESGGGLVQAGGSLRLSCAASGYTFYIYVMGWYRQAPGKERELVAAISSGDSTNYADSVKGRFTISRDNAKNTVYLQMNSLKPEDTAVYYCNAVHRSIARGGGMDYWGQGTQVTVSS
polyreactivity (PSR sort gate): low polyreactivity

QVQLVESGGGLVQAGGSLRLICDASGRIFPWYTMGWYRQAPGKERELVAAITSGGNKDYADSVKGRFTISRDYAKNTVFLQMNSLKPEDTAVYYCAAGPDPLGEDYWGQGTQVTVSS
polyreactivity (PSR sort gate): low polyreactivity

QVQLVESGGGLVQAGGSLRLSCAASRFTFTAYAMGWYRQAPGKERELVAAITGTGGSTKYADSVKGRFTISRDNAKNSVDLQMYSLKPEDTAVYYCAAIRFTLRRMDYWGHGTQVTVSS
polyreactivity (PSR sort gate): high polyreactivity

QVQLVESGGGLVQAGGSLRLSCAASGRIFAFYAMGWYRQAPGKERQLVAVISKSGGTTYYADSVKGRFTISRDNAKNTVYLQMNSLKPEDTAVYYCNKRVFYRHGYSYNYWGQGTQVTVSS
polyreactivity (PSR sort gate): high polyreactivity

QVQLVESGGGLVQAGGSLRLSCAASGSIFAGNTMGWYRQAPGKERELVARMTRAGSTYYADSVKGRFTITRDNAKNTVYLQMNSLKPEDTAVYYCASGPTGSLYRYYYWGQGSQVTVSS
polyreactivity (PSR sort gate): high polyreactivity

QVQLVESGGGLDQAGGSLRLSCAASGSTLPVYALGWNRQAPGKERELVAAITDSGGNTYYADSVKGRFTISRDNAKNTVYLQMNSLKPEDTAVYYCNADAQSTSGYGYYAPYWMDYWGQGTQVTVSS
polyreactivity (PSR sort gate): low polyreactivity

QVQLVESGGGLVQAGGSLRFICAASGGISSSNAMGWYRQAHGKERELVAGINSRGGSTYADSVKGRFTISRANAKNTVYLQMNSLKPEDTAVYYCAAAPTYKWRRKNYDYWGQGTQVTVAS
polyreactivity (PSR sort gate): high polyreactivity

QVQLVESGGGLVQAGGSLRLSCAASGSTFSLNAMGWYRQAPGKERELVAAITRSGGSTYYADSVKGRFTISRDNAKNTVYLQMNSLKPEDTAVYYCAALPRWSHRYDDWGQGTQVTVSS
polyreactivity (PSR sort gate): high polyreactivity

QVQLVESGGGLVQAGGSLRLSCAASGRIFQYYAMGWYRQAPGKERELVAAISSAGSTYYADSVKGRFTISRDNAKNTVYLQMNSLKPEDTAVYYCAVGKQVLSYQNYYWGQGTQVTVSS
polyreactivity (PSR sort gate): low polyreactivity

QVQLVESGGGLVQAGGSLRLSCAASGSIFSSYTMGWYRQAPGKERELVAAISSTGSTYYADSVKGRFTISRDNAKNTVYLQMNSLKPEDTAVYYCAARGWYWQQYKGHTRYDYWGQGTQVTVSS
polyreactivity (PSR sort gate): high polyreactivity

QVQLVESGGGLVQAGGSLRLSCAASGRTFAKYAMGLYRQAPGKERELVAAITRGDTTNYADSVKGRFTISRDNAKNTVYLQMNSLKPEDTAVYYCAATPDPPHTYEYWGQGTQVTVSS
polyreactivity (PSR sort gate): low polyreactivity

QVQLVESGGGLVQAGGSLRLSCAASGSTFLGYTMGWSRQAPGKERELVATITRRGGRTSYADSVKGRFTISRDNAKNTVYLQMNSLKPEDTAVYYCATDSKRSSVPWNTYDYWGQGTQVTVSS
polyreactivity (PSR sort gate): high polyreactivity

QVQLVESGGGLVQAGGSLRLSCAASGRIFRHNTMGWYRQAPGNESELVAGITASGGDTYYADSVTGRFTISRDNAKNTVYLQMNSLNPEDTAVYDCATSQYGYRSWPGLYYWGQGTQVTVSS
polyreactivity (PSR sort gate): low polyreactivity

QVQLVESGGGLVQAGGSLRLSCAASGSTFGSNDMGWYRPAPGKERELVAGITWSGGSTFYADSVKGRFTISRDTAKNTVYLQMNSLKPEDTAVYYCAVSTEVNRYHAKYDYWGQGTQVTVSS
polyreactivity (PSR sort gate): low polyreactivity

QVQLVESGGGLVQAGGSLRLSCAASGFIFGTYAMGWYRQAPGNERELVAAISVGGGSTYYADSVKGRFTISRDNAKNTVYLQMNSLKPEDTAVYYCAAVQLYQKHQITYVAHEYWGQGTQVTVSS
polyreactivity (PSR sort gate): low polyreactivity

QVQLVESGGGLVQAGGSLRLSCAASGRIFSDYVMGWYRQAPGKERELVADITGGGSTYYADSVKGRFTISRDNAKNTVYLQMNSLKPEDTAVYYCAARVYSYWDRSQRYYYCGQGTQVTVSS
polyreactivity (PSR sort gate): high polyreactivity

QVQLVESGGGLVQAGGSLRLSSAASGRTFDRNAMGWYRQAPGKERELVAGITRSGDSTYADSVKGRFTISRDNAKITVYLQMNSLKPEDTAVYYCNKEGTVGGTRGYWGQGTQVTVSS
polyreactivity (PSR sort gate): low polyreactivity

HVQLVESGGGLVQAGGSLRLSCAASGNICYGYAMGGYRQAPGKERELVARINWSGSRTYYADSVKGRFTISRDNAKNTVYLQMNSLKPDDTAVYYCNTSTSRVPGNGDYWGQGTQVTVSS
polyreactivity (PSR sort gate): high polyreactivity

QVQLVESGGGLVQAGGSLRLSCAASGGYGMGWYRQAPGKERELVAAISYSGGSTYYADSVKGRFTISRDNAKNTVYLQMNSLKPEDTAVYYCNVLRGSLNGWWPGYDYWGQGTQVTVSS
polyreactivity (PSR sort gate): low polyreactivity

QVQLVESGGGLVQAGGSLRLSCAASGSIFVGYARGWYRQAPGKERELVAAISFSGGSTYYADSVKGRFTLSRDNAKNTVYLQMNSLKPEDTAVYYCNAYSWYNGIGNYDYWGQGTQVTVSS
polyreactivity (PSR sort gate): low polyreactivity

QVQLVESGGGLVQAGCSRRFSCAASGFTFYKNAMGWYRQAPGKERELVAAITSSGGTTYYADSVKGRFTISRDNAKNTVYLQMNSLNPEDTAVYYCAARASRPRFGYWGQGTQVTVSS
polyreactivity (PSR sort gate): high polyreactivity

QVQLVESGGGLFQAGGSLRLSCAASGRIFVFYAMGWYRQAPGKEMELVAAISKSVGPTYYADSVKGRFTISRDYAKNTVYLQMNSLKPEDTAVYYCNKRSASDLWPQYGYWGQGTQVTVSS
polyreactivity (PSR sort gate): low polyreactivity

QVQLVESGGGLVQAGGSLRLSCAASGYIFDVYAMGWYRQAPGKERELVATISSGTGITKYADSVKGRFTISRDNAKNTVYLQMNSLKPEDTAVYYCAADYASLSWLGFYYWGQGTQVTVSS
polyreactivity (PSR sort gate): low polyreactivity

QVQLVESGGGLVQAGGSLRLSCAASGRTIPTYVMGWYRQAPGKERELVASIRSGGRTKYADSVKGRFTISRDNAKNTVYLQMNSLKPEDTAVYYCAADYHGSPEYDYWGQGTQVTVSS
polyreactivity (PSR sort gate): low polyreactivity

QVQLVESGGGLVQAGGSLRLSCAASGSIFSGYAMGWYRQAPGKERELVAAINWTGDSTYYADSVKGRFTISRDNAKNTVYLQMNSLKPEDTAVYYCAAIRRQKGLWDYYYWGQGSQVTVSS
polyreactivity (PSR sort gate): low polyreactivity
